In publication PMC5304152:
“And” between values parts separate entries of the source, which are not always exact repeats. Identical values can stand only once.

Target: barfin plaice type I antifreeze protein, 40-residue major isoform (bpAFP) (barfin plaice (Liposetta pinnifasciata))
Experiment: AUC; sedimentation velocity, 40,000 rpm, 4 °C, 2.5 mg bpAFP in 0.5 mL (5 mg/mL) 10 mM sodium phosphate pH 7.9, absorbance optics; monomer to tetramer (and octamer)

percent of loaded protein sedimenting as tetramer: 2.7%
stoichiometry N: 4 and 8
Substance: barfin plaice type I antifreeze protein, 40-residue major isoform (bpAFP) (peptide)
